Paper PMC7096766

B1: apt15-rssp (tba15-rssp) (structured_DNA)
DNA: TTTTTTGGTTGGTGTGGTTGG
modifications: 5'-C6-NH2, DBCO; conjugated by azide-DBCO cycloaddition to spider silk protein eADF4(C16)
B2: apt29-rssp (tba29-rssp) (structured_DNA)
DNA: TTTTTTAGTCCGTGGTAGGGCAGGTTGGGGTGACT
modifications: 5'-C6-NH2, DBCO; conjugated by azide-DBCO cycloaddition to spider silk protein eADF4(C16)

Biological target: human alpha-thrombin (Homo sapiens, UniProt P00734;P00734 328-363;364-622)
Assay: SEC mobility shift

Row | Binder | binding result
1 | B1 | binds
2 | B2 | binds
